The values below come from patent publication US20240336680A1.

Experiment [1] concerns the target human CLDN18.2 (isoform 2 of claudin-18), full length, expressed on CHO cells (human) (UniProt P56856). In words: FACS, serial dilutions on CHO cells expressing human CLDN18.2. On the technique in general: A flow cytometer gives signals particle by particle.
Experiment [2] has the same target. In words: FACS titration on CHO/CLDN18.2 cells, 0.00001 to 100 ug/mL.

B1: Chimeric T252S4 H/L (antibody, human IgG1, V domains shown)
VH: EVQLQQSGPELVKPGASMKISCKASGYSFTGYNMNWVKQTHGKNLEWIGLINPYNGGTRYNQKFKGKATLTVDKSSSTAYMELLSLTSEDSAVYFCARMGLGNAMDYWGQGTSVTVSS
VL: DIVMTQSPSSLTVTAGEKVTMSCKSSQNLLNSGNQKNYLTWYQQKPGQPPKLLIYWASTMESGVPDRFTGSGSGTDFTLTISSVQAEDLAVYYCQNDYIYPLPFGAGTKLELK
B1 displayed a concentration for a half-maximal effect (EC50) in experiment [1] of 1 µg/mL.

B2: HuT252S4 H3/L1 (antibody, V domains shown)
VH: EVQLVQSGAEVKKPGESLKISCKGSGYSFTGYNMNWVRQMPGKNLEWIGLINPYNGGTRYNQKFKGKATLSVDKSISTAYLQWSSLKASDTAMYFCARMGLGNAMDYWGQGTTVTVSS
VL: DIVMTQSPDSLAVSLGERATINCKSSQNLLNSGNQKNYLTWYQQKPGQPPKLLIYWASTMESGVPDRFSGSGSGTDFTLTISSLQAEDVAVYYCQNDYIYPLPFGQGTKLEIK
B2 yielded an EC50 (read off the curve) in experiment [2] of 1 µg/mL.

B3: HuT252S4 H3/L2 (antibody, V domains shown)
VH: EVQLVQSGAEVKKPGESLKISCKGSGYSFTGYNMNWVRQMPGKNLEWIGLINPYNGGTRYNQKFKGKATLSVDKSISTAYLQWSSLKASDTAMYFCARMGLGNAMDYWGQGTTVTVSS
VL: DIVMTQSPDSLAVSLGERATINCKSSQNLLQSGNQKNYLTWYQQKPGQPPKLLIYWASTRESGVPDRFSGSGSGTDFTLTISSLQAEDVAVYYCQNDYIYPLPFGQGTKLEIK
For the molecule B3, the EC50 (read off the curve) in experiment [2] is 1 µg/mL.

What is called EC50 is the concentration at which the effect is half-maximal. Higher therefore signals a need for much substance. Broadly, the EC50 (read off the curve) is the concentration needed to bring the measured effect to its halfway point. The low end stands for an effect from little substance, the high end for a need for much substance.
